According to EP0765166B1, “RADIOLABELED ANNEXIN-GALACTOSE CONJUGATES” (NEORX CORPORATION, priority 1994, dated 1995):

Details: in vivo, iv
Method: • A. Animal Preparation - LA Vascular Thrombi. Fasting 25-30 kg Yorkshire swine were sedated with intramuscular Telazol (5-10 mg/kg) (commercially available from AVECO Co.) and commercially available Atropine (1 mg, Elkins-Sinn, Inc., Cherry Hill, NJ). Surital (200 mg) (commercially available from Abbott Laboratories) anaesthesia was administered intravenously. The animals were intubated and given inhalation anaesthesia of 1.5-2% halothane (commercially available from Abbott Laboratories) and O2 sufficient to obtain a deep level of anesthesia and physiologic arterial blood gases. Continuous electrocardiographic monitoring was instituted using alligator clip electrodes. A cut down in the neck region was conducted, and an 8 french catheter (USCI Co, Billerica, MA) was placed in the right common carotid artery for blood pressure and arterial blood gas monitoring as well as for blood sampling. The swine were placed in a right lateral decubitus position, and a lateral thoracotomy was performed to expose the heart. The incision was held open by a thoracotomy retractor. The pericardium was opened, and the left atrial appendage was isolated from the left atrium by a vascular cross- clamp. Rubber tipped forceps were used to gently crush the appendage. Five minutes later, ricinoleate (1 mg, ICN Pharmaceuticals, Costa Mesa, CA) and thrombin ([…], Johnson and Johnson Co., Arlington, Texas) were injected into the LAA (left atrial appendage) using a 27 Ga needle. The cross-clamp was removed 10 minutes later. One hour after the crush injury, Tc-99m-annexin V, prepared in accordance with Example I above, was administered as an intravenous bolus dose in an ear vein. The intravenous line was then flushed with saline. In 7 animals, I-125 labeled ovalbumin was administered as a non-specific control preparable, for example, by the procedure described by Fraker et al., Biochem. Biophys. Res. Commun. 80: 849-57, 1978). Briefly, I-125-radiolabeled ovalbumin was prepared by the Iodogen method, employing 600 µg ovalbumin (Sigma Chemical Co., St. Louis, Missouri) and NaI-125 (2mCi, 0.92 nmol). Image acquisition was performed as described below. At the end of the experimental procedure (generally about 150 minutes), the animals were sacrificed by an intravenous bolus dose of 80 mEq of KCl while the animals were still under general anaesthetic. A final blood sample was taken for well counting. The heart was rapidly excised, washed free of blood and dissected into samples for well counting. Additional samples of carotid artery, lung, liver, spleen, muscle and kidney were obtained in some animals. • B. Controls. Five different types of controls were used: open chest sham; closed chest sham; ovalbumin; indium platelets; and non-specific Tc-99m-labeled antibody. • 1. Open Chest Sham. […]

In the case of “Tc-99m-annexin V: Annexin V radiolabeled with Tc-99m by using a diamide dimercaptide N2S2 chelate (Comparative Example I)”, the a is reported as “a = 0.0389 %ID/g”, the b is reported as “b = 0.0300 %ID/g” and the t1/2 a is reported as “t1/2 a = 9.6 min”. The t1/2 b was “t1/2 b = 46 min”.
